Read-outs that look alike come from different tables or passages of the source.
What was measured:
[1] = biological target: HER2 (ErbB2) (Homo sapiens) (UniProt P04626)
IgE (Homo sapiens) = details: bulk Kd, bead-based fluorescence
PDGF-BB (Homo sapiens) [2] = biological target: PDGF-BB (Homo sapiens) (UniProt P01127); details: unselected library on PDGF-BB beads, with formaldehyde cross-linking
PDGF-BB (Homo sapiens) [3] = biological target: PDGF-BB (Homo sapiens) (UniProt P01127); details: bulk Kd, bead-based fluorescence
CTLA-4 = CTLA-4 (UniProt P16410); details: bulk Kd, bead-based fluorescence
CTLA-4, sequence (P16410 36-161): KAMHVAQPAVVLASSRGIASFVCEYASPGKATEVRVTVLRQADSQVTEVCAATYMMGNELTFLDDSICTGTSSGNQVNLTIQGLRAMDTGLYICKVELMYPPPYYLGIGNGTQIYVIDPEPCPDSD

PD-L1 = PD-L1 (UniProt Q9NZQ7); details: bulk Kd, bead-based fluorescence
PD-L1, sequence (Q9NZQ7 19-238): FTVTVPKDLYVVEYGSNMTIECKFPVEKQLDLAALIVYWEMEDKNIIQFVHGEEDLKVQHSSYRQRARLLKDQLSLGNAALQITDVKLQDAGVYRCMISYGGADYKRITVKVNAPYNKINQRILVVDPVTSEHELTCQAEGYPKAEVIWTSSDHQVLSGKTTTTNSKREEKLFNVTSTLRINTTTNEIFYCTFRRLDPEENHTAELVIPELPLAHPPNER

EGFR = EGFR (UniProt P00533); details: HER2 about 4 times higher
ErbB4 (HER4) = biological target: T1, ErbB4 (HER4) (UniProt Q15303); details: HER2 about 4 times higher
T1 sequence: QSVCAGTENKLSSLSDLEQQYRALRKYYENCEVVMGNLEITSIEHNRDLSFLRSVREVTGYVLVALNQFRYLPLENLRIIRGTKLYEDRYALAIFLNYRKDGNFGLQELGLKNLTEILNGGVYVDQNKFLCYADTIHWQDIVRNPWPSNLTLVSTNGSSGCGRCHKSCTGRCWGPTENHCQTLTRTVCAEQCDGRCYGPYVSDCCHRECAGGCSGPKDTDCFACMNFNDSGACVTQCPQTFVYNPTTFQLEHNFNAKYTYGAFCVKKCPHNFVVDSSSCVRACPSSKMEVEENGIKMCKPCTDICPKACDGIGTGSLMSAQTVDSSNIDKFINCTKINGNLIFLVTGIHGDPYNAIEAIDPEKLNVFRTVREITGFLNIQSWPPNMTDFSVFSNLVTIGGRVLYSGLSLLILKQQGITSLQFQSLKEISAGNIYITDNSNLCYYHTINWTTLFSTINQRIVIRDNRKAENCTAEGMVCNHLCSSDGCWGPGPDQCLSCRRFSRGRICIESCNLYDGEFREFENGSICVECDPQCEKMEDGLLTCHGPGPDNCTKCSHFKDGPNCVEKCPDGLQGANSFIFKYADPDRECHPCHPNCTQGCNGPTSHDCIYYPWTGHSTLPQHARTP

ErbB3 (HER3) = ErbB3 (HER3) (UniProt P21860); details: HER2 about 4 times higher
ErbB3 (HER3), sequence (P21860 20-643): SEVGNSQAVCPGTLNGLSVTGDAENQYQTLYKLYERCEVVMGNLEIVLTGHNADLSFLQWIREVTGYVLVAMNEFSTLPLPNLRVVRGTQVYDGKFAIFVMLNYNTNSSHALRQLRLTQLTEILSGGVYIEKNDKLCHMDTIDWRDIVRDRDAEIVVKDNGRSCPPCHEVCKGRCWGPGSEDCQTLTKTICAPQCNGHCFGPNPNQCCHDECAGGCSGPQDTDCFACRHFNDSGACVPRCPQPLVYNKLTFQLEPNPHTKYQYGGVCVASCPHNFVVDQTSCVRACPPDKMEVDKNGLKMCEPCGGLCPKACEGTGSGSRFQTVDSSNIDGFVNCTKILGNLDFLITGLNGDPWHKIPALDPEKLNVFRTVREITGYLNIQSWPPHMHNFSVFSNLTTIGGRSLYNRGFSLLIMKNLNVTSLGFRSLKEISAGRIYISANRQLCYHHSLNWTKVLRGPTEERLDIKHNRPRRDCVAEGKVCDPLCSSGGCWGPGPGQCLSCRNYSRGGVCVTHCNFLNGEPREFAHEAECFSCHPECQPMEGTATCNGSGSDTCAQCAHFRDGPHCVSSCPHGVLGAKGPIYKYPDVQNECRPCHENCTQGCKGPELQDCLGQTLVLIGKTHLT

[4] = biological target: HER2 (ErbB2) (Homo sapiens) (UniProt P04626); details: bulk Kd, with formaldehyde cross-linking; about 5-fold higher Kd without
ubiquitin = ubiquitin (UniProt P0CG48); details: bulk Kd, bead-based fluorescence

PDGF-BB (Homo sapiens), sequence (P01127 82-190): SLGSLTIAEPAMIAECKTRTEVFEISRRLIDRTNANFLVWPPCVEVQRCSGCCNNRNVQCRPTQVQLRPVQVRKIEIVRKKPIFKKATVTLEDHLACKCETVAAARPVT

Sequence: AGCAGCACAGAGGTCAGATGNNNNNNNNNNNNNNNNNNNNNNNNNNNNNNNNNNNNNNNNCCTATGCGTGCTACCGTGAA [HER2 round 1 pool]
- Kd ([1]; bulk Kd, with formaldehyde cross-linking): 22.1 nM

Sequence: AGCAGCACAGAGGTCAGATGNNNNNNNNNNNNNNNNNNNNNNNNNNNNNNNNNNNNNNNNCCTATGCGTGCTACCGTGAA [IgE round 3 pool]
- Kd (IgE (Homo sapiens)): 8.4 nM

Sequence: AGCAGCACAGAGGTCAGATGNNNNNNNNNNNNNNNNNNNNNNNNNNNNNNNNNNNNNNNNCCTATGCGTGCTACCGTGAA [unselected ssDNA library (N40)]
- Kd ([1]; no obvious binding): > 1000 nM
- binding signal (PDGF-BB (Homo sapiens) [2]): < 2 % bound

Sequence: AGCAGCACAGAGGTCAGATGNNNNNNNNNNNNNNNNNNNNNNNNNNNNNNNNNNNNNNNNCCTATGCGTGCTACCGTGAA [PDGF-BB round 3 pool]
- Kd (PDGF-BB (Homo sapiens) [3]): 1.9 nM

Sequence: AGCAGCACAGAGGTCAGATGNNNNNNNNNNNNNNNNNNNNNNNNNNNNNNNNNNNNNNNNCCTATGCGTGCTACCGTGAA [CTLA-4 round 3 pool]
- Kd (CTLA-4): 10.4 nM

Sequence: AGCAGCACAGAGGTCAGATGNNNNNNNNNNNNNNNNNNNNNNNNNNNNNNNNNNNNNNNNCCTATGCGTGCTACCGTGAA [PD-L1 round 3 pool]
- Kd (PD-L1): 15.5 nM

Sequence: AGCAGCACAGAGGTCAGATGNNNNNNNNNNNNNNNNNNNNNNNNNNNNNNNNNNNNNNNNCCTATGCGTGCTACCGTGAA [HER2 round 3 pool]
- binding signal (fraction of HER2 signal) (EGFR): 0.25
- binding signal (fraction of HER2 signal) (ErbB4 (HER4)): 0.25
- binding signal (fraction of HER2 signal) (ErbB3 (HER3)): 0.25
- Kd [4]: 6.8 nM

Sequence: AGCAGCACAGAGGTCAGATGNNNNNNNNNNNNNNNNNNNNNNNNNNNNNNNNNNNNNNNNCCTATGCGTGCTACCGTGAA [ubiquitin round 3 pool]
- Kd (ubiquitin): 11.9 nM

Reference: patent publication US20180119149
